How the values were obtained:
Experiment in all cases: biochemical
266 human kinases [1] = biological target: 266 human kinases (Homo sapiens, UniProt Q86Z02); format: biochemical; details: HIPK1(h); 100 μM
Procedure, shortened: (§1)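 Inhibition was judged from reduced transfer of labelled phosphate from ATP to a positively charged substrate, which was captured on a negatively charged membrane and quantified by scintillation counting against a 100% activity control.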

266 human kinases [2] = biological target: 266 human kinases (Homo sapiens, UniProt P04629); format: biochemical; details: TrkA(h); 100 μM
Procedure, shortened: as §1

266 human kinases [3] = biological target: 266 human kinases (Homo sapiens, UniProt O15264); format: biochemical; details: SAPK4(h); 100 μM
Procedure, shortened: as §1

266 human kinases [4] = biological target: 266 human kinases (Homo sapiens, UniProt P00519, M351T); format: biochemical; details: Abl(M351T)(h); 100 μM
Procedure, shortened: as §1

266 human kinases [5] = biological target: T1, 266 human kinases (Homo sapiens, UniProt O00141); format: biochemical; details: SGK(h); 100 μM
T1 sequence (O00141 1-431): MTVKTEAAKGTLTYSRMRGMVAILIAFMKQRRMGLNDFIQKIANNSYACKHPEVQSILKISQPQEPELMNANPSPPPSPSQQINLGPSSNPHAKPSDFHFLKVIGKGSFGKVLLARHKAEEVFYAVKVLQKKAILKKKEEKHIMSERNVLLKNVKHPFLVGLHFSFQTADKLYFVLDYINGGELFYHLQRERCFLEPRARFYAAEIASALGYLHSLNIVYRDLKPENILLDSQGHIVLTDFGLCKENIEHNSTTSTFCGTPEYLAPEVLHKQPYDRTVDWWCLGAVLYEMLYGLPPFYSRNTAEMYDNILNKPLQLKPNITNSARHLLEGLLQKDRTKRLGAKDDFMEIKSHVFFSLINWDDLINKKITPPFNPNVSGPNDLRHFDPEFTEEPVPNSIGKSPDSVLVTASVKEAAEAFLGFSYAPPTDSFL
Procedure, shortened: as §1

266 human kinases [6] = biological target: 266 human kinases (Homo sapiens, UniProt P16234, V561D); format: biochemical; details: PDGFRα(V561D)(h); 100 μM
Procedure, shortened: as §1

266 human kinases [7] = biological target: T2, 266 human kinases (Homo sapiens, UniProt Q15139); format: biochemical; details: PKCμ(h); 100 μM
T2 sequence (Q15139 1-912): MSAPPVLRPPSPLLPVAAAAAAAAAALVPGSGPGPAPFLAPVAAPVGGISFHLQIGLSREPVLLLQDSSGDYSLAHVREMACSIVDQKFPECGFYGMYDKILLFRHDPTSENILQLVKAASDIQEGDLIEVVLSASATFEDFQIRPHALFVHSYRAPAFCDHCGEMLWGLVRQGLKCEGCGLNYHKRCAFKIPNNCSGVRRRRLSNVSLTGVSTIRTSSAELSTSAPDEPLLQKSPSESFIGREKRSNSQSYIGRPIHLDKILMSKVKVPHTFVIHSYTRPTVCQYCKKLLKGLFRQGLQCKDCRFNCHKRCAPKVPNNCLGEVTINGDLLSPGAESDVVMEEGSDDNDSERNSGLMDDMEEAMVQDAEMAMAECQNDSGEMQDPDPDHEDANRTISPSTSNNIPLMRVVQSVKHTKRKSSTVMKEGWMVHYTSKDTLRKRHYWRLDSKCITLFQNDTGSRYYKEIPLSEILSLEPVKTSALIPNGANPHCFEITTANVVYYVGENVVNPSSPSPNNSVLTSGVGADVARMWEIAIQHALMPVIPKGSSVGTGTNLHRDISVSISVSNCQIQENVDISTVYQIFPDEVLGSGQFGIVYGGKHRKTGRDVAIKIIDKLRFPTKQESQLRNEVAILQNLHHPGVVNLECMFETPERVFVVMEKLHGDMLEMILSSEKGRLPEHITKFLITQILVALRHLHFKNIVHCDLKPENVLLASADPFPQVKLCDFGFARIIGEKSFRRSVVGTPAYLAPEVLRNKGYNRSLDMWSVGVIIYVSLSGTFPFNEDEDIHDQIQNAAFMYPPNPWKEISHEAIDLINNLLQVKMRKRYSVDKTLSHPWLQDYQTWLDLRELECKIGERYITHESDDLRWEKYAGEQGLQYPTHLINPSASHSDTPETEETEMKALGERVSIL
Procedure, shortened: as §1

266 human kinases [8] = biological target: 266 human kinases (Homo sapiens, UniProt Q16832); format: biochemical; details: DDR2(h); 100 μM
Procedure, shortened: as §1

266 human kinases [9] = biological target: 266 human kinases (Homo sapiens, UniProt Q02750); format: biochemical; details: MEK1(h); 100 μM
Procedure, shortened: as §1

266 human kinases [10] = biological target: 266 human kinases (Homo sapiens, UniProt P10721, D816H); format: biochemical; details: cKit(D816H)(h); 100 μM
Procedure, shortened: as §1

266 human kinases [11] = biological target: 266 human kinases (Homo sapiens, UniProt P07333, Y969C); format: biochemical; details: Fms(Y969C)(h); 100 μM
Procedure, shortened: as §1

EphA2 (h) = EphA2 (h) (Homo sapiens, UniProt P29317); details: EphA2(h); 100 μM
Text: (§2) Specifically, in these assays, a positively charged substrate is phosphorylated with a radiolabeled phosphate group from an ATP if the kinase is not inhibited by an inhibitor peptide. The positively charged substrate then is attracted to a negatively charged filter membrane, quantified with a scintillation counter, and compared to a 100% activity control.

Fgr (h) = Fgr (h) (Homo sapiens, UniProt P09769); details: Fgr(h); 100 μM
Text: as §2

Yes (h) = Yes (h) (Homo sapiens, UniProt P07947); details: Yes(h); 100 μM
Text: as §2

Sequence of Yes (h) (P07947 whole entry): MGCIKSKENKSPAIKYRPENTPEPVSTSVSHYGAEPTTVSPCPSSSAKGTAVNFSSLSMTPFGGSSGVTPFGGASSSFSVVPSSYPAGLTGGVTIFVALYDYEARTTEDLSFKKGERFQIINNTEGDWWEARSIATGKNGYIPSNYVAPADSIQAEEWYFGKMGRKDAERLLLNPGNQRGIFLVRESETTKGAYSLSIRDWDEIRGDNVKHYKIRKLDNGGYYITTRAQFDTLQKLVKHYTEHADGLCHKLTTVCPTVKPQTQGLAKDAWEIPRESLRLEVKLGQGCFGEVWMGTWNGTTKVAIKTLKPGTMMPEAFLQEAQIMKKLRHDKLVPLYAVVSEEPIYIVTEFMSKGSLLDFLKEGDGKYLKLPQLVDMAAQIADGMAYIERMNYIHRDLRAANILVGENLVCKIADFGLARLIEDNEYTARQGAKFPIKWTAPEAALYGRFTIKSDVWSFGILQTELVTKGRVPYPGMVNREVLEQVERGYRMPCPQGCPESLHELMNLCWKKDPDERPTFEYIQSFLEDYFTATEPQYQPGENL
Sequence of 266 human kinases (Homo sapiens, UniProt Q86Z02) (Q86Z02 whole entry): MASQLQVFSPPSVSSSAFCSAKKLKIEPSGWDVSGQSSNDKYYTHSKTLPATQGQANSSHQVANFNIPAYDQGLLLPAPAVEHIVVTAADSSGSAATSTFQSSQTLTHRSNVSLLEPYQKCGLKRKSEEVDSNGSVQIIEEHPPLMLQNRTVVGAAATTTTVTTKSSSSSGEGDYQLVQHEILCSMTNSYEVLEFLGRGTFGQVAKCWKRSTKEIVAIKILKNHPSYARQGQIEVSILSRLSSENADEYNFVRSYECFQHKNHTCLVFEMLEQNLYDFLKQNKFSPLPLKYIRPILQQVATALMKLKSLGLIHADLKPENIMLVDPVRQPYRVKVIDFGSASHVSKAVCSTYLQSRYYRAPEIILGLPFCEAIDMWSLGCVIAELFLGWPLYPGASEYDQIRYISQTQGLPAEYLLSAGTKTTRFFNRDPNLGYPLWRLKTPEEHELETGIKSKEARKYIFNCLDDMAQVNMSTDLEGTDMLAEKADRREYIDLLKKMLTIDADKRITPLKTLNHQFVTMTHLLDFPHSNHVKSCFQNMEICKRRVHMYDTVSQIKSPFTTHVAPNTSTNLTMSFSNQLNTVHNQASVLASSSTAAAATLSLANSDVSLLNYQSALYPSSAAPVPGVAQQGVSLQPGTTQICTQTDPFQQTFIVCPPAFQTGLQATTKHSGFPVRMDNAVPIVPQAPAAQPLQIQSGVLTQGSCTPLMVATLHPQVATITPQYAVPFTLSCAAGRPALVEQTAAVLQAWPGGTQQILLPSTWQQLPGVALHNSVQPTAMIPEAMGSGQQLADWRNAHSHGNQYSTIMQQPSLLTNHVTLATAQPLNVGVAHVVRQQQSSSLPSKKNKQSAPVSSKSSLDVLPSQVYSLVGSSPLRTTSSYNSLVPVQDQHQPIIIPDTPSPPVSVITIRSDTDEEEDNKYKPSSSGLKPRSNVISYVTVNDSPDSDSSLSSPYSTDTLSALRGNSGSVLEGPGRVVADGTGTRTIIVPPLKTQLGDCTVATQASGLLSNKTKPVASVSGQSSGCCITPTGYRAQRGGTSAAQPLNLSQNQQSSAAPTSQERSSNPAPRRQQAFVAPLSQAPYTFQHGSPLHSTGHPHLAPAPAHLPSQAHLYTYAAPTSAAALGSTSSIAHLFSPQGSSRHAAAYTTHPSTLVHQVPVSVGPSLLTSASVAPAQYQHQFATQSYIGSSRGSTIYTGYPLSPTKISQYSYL
Sequence of 266 human kinases (Homo sapiens, UniProt P04629) (P04629 33-796): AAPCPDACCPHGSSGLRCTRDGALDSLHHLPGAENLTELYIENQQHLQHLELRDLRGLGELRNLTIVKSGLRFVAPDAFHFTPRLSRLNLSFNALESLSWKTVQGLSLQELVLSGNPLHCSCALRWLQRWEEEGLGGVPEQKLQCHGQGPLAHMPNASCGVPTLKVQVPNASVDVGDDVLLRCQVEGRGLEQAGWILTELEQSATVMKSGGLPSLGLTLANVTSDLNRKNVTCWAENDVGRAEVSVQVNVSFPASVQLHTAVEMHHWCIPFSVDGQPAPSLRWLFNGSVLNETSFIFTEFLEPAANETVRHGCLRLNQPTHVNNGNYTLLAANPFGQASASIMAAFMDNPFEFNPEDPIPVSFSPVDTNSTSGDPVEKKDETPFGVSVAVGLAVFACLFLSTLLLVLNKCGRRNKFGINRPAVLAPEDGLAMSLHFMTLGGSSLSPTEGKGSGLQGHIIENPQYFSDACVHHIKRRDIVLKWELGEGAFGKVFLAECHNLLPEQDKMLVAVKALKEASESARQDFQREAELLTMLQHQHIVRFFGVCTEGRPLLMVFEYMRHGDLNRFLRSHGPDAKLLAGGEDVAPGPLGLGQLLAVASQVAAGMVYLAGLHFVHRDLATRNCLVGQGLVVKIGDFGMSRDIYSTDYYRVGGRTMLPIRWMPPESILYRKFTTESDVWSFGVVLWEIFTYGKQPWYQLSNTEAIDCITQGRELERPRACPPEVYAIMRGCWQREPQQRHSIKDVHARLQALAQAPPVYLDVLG
Sequence of 266 human kinases (Homo sapiens, UniProt Q16832) (Q16832 22-855): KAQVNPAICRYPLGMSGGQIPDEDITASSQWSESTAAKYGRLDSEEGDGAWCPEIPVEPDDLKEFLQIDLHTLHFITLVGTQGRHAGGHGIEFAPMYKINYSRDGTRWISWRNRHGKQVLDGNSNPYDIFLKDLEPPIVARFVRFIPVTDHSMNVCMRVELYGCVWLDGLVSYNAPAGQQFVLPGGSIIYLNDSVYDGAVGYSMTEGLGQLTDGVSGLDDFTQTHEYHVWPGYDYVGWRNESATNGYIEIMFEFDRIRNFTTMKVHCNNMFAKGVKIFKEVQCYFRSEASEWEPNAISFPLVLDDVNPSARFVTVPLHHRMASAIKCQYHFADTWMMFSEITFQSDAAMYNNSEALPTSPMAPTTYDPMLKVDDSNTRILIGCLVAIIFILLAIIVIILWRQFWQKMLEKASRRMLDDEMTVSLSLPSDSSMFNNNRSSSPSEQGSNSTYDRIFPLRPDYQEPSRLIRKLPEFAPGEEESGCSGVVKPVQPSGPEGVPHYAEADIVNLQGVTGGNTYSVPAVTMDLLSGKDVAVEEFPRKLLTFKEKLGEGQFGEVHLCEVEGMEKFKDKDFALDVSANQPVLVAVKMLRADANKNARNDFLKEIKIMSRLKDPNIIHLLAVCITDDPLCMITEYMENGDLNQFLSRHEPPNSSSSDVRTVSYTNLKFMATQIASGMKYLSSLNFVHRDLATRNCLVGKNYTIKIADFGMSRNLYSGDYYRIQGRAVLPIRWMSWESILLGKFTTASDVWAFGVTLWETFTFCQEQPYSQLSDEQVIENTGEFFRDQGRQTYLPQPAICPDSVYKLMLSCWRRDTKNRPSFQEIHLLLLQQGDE
Sequence of 266 human kinases (Homo sapiens, UniProt P16234, V561D) (P16234 24-1089 V561D): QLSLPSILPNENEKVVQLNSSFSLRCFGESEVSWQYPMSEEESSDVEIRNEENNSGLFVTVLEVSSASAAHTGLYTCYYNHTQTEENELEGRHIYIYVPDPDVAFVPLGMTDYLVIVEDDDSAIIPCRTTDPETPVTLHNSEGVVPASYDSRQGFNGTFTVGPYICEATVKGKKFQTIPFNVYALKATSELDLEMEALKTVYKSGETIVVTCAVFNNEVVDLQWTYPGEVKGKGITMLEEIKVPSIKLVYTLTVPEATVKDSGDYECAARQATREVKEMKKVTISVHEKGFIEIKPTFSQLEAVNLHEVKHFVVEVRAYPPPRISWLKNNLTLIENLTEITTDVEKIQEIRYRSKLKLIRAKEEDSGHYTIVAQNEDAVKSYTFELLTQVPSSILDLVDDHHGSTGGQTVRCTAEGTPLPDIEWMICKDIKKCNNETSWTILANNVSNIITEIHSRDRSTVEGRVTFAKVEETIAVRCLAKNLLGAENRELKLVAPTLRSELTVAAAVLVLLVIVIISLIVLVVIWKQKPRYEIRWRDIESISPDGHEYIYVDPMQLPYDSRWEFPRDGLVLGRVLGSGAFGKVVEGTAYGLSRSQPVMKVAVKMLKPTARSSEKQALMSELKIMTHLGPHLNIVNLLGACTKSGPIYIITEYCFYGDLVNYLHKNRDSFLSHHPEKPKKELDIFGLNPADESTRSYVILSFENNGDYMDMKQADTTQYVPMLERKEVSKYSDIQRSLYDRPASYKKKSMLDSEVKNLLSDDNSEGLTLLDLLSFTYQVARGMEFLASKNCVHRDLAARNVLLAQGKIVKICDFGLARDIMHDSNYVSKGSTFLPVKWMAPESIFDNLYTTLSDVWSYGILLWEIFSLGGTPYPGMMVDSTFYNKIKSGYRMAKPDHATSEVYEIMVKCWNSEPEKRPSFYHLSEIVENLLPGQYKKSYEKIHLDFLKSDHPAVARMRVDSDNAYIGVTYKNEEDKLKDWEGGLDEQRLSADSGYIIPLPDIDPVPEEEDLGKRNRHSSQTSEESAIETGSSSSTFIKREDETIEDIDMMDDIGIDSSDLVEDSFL
Sequence of 266 human kinases (Homo sapiens, UniProt O15264) (O15264 whole entry): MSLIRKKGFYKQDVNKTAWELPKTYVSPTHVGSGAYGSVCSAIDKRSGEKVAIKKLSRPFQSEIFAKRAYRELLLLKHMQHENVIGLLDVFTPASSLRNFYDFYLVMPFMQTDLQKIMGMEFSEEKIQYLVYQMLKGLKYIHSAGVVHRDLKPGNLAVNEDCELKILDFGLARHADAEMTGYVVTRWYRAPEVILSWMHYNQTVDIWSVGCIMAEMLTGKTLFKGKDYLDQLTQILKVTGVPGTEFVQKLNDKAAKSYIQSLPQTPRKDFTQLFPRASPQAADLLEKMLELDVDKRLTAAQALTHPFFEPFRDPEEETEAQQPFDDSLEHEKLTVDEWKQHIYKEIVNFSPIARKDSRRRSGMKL

Row | Sequence | % activity (266 human kinases [1]) [%] | % activity (266 human kinases [2]) [%] | % activity (266 human kinases [3]) [%] | % activity (266 human kinases [4]) [%] | % activity (266 human kinases [5]) [%] | % activity (266 human kinases [6]) [%] | % activity (266 human kinases [7]) [%] | % activity (266 human kinases [8]) [%] | % activity (266 human kinases [9]) [%] | % activity (266 human kinases [10]) [%] | % activity (266 human kinases [11]) [%] | % activity (EphA2 (h)) [%] | % activity (Fgr (h)) [%] | % activity (Yes (h)) [%]
1 | HRRIKAWLKKIKALARQLGVAA (mammal) [MMI-0500] | 47 | 24 | 48 | 61 | 2 | 146 | 10 | 79 | 21 | 194 |  |  |  | 
2 | YARAAARQARAKALNRQLGVA (mammal) [MMI-0200] |  |  |  |  |  |  | 73 |  |  |  | 88 | 95 | 71 | 93
